The supplement of paper PMC7877785
± gives the uncertainty stated by the source.

Test: self-splicing fitness, log relative to wild type (ln ratio); higher = more splicing; Tetrahymena group I intron in knt gene, E. coli kanamycin selection, DiMSum; sequences stand for … in CUCUCU…GGAGGGAAAAGUUAUCAGGCAUGCACCUGGUAGCUAGUCUUUAAACCAAUAGAUUGCAUCGGUUUAAAAGGCAAGACCGUCAAAUUGCGGGAAAGGGGUCAACAGCCGUUCAGUACCAAGUCUCAGGGGAAACUUUGAGAUGGCCUUGCAAAGGGUAUGGUAAUAAGCUGACGGACAUGGUCCUAACCACGCAGCCAAGUCCUAAGUCAACAGAUCUUCUGUUGAUAUGGAUGCAGUUCACAGACUAAAUGUCGGUCGGGGAAGAUGUAUUCUUCUCAUAAGAUAUAGUCGGACCUCUCCUUAAUGGGAGCUAGCGGAUGAAGUGAUGCAACACUGGAGCCGCUGGGAACUAAUUUGUAUGCGAAAGUAUAUUGAUUAGUUUUGGAGUACUCGUGGUCG
Method in brief: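 DiMSum derived fitness as the error-weighted combination of fold changes across replicates, kanamycin versus no kanamycin, normalised to wild type. E. coli BL21(DE3) held the library, which randomised all eight P1ex-region intron nucleotides within the knt kanamycin-resistance gene on pET-22b(+). Six replicate transformations grew overnight at 37°C or 30°C on LB agar with or without 25 μg/mL kanamycin, also containing 100 μg/mL carbenicillin, 50 μM IPTG and 0.2% rhamnose, and pooled colonies were amplicon-sequenced on an Illumina HiSeq 2500.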

Row | Sequence | self-splicing fitness (ln) (30 °C) | self-splicing fitness (ln) (37 °C)
1 | GUAAAGCAAUAUUACGGCAU | -0.176 ± 0.067 | -0.287 ± 0.078
2 | GUAAAGCAAUAUUACGGGCC | -1.92 ± 0.25 | -1.05 ± 0.23
3 | GUAAAGCAAUAUUACGGGCG | -0.457 ± 0.12 | -0.386 ± 0.12
4 | GUAAAGCAAUAUUACGUAAG | -1.95 ± 0.1 | -1.2 ± 0.13
5 | GUAAAGCAAUAUUACGUCCC | -1.07 ± 0.19 | 0.449 ± 0.26
6 | GUAAAGCAAUAUUACGUGAG | -2.03 ± 0.084 | -0.98 ± 0.1
7 | GUAAAGCAAUAUUACGUUAG | -1.01 ± 0.057 | -0.896 ± 0.076
8 | GUAAAGCAAUAUUACGUUCC | -2.91 ± 0.18 | 0.158 ± 0.14
9 | GUACAGCAAUAUUACGAAGU | -3.32 ± 0.17 | -1.67 ± 0.18
10 | GUACAGCAAUAUUACGAAUC | -2.65 ± 0.35 | -1.18 ± 0.18
11 | GUACAGCAAUAUUACGACCG | -2.47 ± 0.19 | -0.419 ± 0.14
12 | GUACAGCAAUAUUACGAGUG | -3.17 ± 0.34 | -1.25 ± 0.18
13 | GUACAGCAAUAUUACGAUGC | -1.03 ± 0.12 | -1.06 ± 0.12
14 | GUACAGCAAUAUUACGCAGU | -4.74 ± 0.31 | -3 ± 0.24
15 | GUACAGCAAUAUUACGCCCC | -1.32 ± 0.2 | -0.26 ± 0.32
16 | GUACAGCAAUAUUACGCCGG | -3.87 ± 0.39 | -2.45 ± 0.24
17 | GUACAGCAAUAUUACGCCGU | -2.95 ± 0.21 | -1.06 ± 0.16
18 | GUACAGCAAUAUUACGCGCA | -1.07 ± 0.11 | -0.616 ± 0.12
19 | GUACAGCAAUAUUACGCGGC | -1.83 ± 0.34 | -2.11 ± 0.36
20 | GUACAGCAAUAUUACGCUUU | -2.99 ± 0.12 | -1.19 ± 0.12
21 | GUACAGCAAUAUUACGGCAC | -0.68 ± 0.11 | 0.0875 ± 0.12
22 | GUACAGCAAUAUUACGGCAG | -4.02 ± 0.2 | -2.33 ± 0.17
23 | GUACAGCAAUAUUACGGCUG | -3.82 ± 0.21 | -1.38 ± 0.14
24 | GUACAGCAAUAUUACGGUGC | -3.12 ± 0.15 | -2.22 ± 0.18
25 | GUACAGCAAUAUUACGGUUA | -0.862 ± 0.058 | -0.00855 ± 0.057
26 | GUACAGCAAUAUUACGUACU | -2.77 ± 0.14 | -2.79 ± 0.25

Row | Sequence | self-splicing fitness (ln) (30 °C) | self-splicing fitness (ln) (37 °C)
27 | GUACAGCAAUAUUACGUAGC | -0.896 ± 0.19 | -2.29 ± 0.25
28 | GUACAGCAAUAUUACGUAUC | -2.87 ± 0.16 | -1.35 ± 0.28
29 | GUACAGCAAUAUUACGUCCA | -2.12 ± 0.13 | -1.23 ± 0.14
30 | GUACAGCAAUAUUACGUCGA | -2.07 ± 0.11 | -1.78 ± 0.12
31 | GUACAGCAAUAUUACGUGAA | -3.94 ± 0.13 | -1.51 ± 0.11
32 | GUACAGCAAUAUUACGUUAC | -3.89 ± 0.36 | -2.27 ± 0.28
33 | GUAGAGCAAUAUUACGAAAC | 0.2 ± 0.34 | -0.546 ± 0.32
34 | GUAGAGCAAUAUUACGAAGG | -1.87 ± 0.31 | –
35 | GUAGAGCAAUAUUACGACCG | -1.28 ± 0.2 | -1.98 ± 0.46
36 | GUAGAGCAAUAUUACGACGA | -1.85 ± 0.15 | -0.21 ± 0.16
37 | GUAGAGCAAUAUUACGAGGA | -2.61 ± 0.26 | –
38 | GUAGAGCAAUAUUACGAGGG | -3.25 ± 0.27 | -2.38 ± 0.37
39 | GUAGAGCAAUAUUACGAUUA | -0.625 ± 0.1 | -0.396 ± 0.14
40 | GUAGAGCAAUAUUACGCACC | -2.47 ± 0.28 | -0.709 ± 0.2
41 | GUAGAGCAAUAUUACGCACG | -0.718 ± 0.24 | -1.99 ± 0.27
42 | GUAGAGCAAUAUUACGCUCA | -0.751 ± 0.1 | -0.0338 ± 0.16
43 | GUAGAGCAAUAUUACGCUCC | -1.72 ± 0.36 | –
44 | GUAGAGCAAUAUUACGCUUA | -0.468 ± 0.087 | -0.371 ± 0.1
45 | GUAGAGCAAUAUUACGCUUG | -0.837 ± 0.12 | -0.536 ± 0.19
46 | GUAGAGCAAUAUUACGGAGU | -2.27 ± 0.23 | -1.61 ± 0.18
47 | GUAGAGCAAUAUUACGGCGU | -0.532 ± 0.077 | 0.0227 ± 0.088
48 | GUAGAGCAAUAUUACGUACA | -0.971 ± 0.11 | -1.12 ± 0.17
49 | GUAGAGCAAUAUUACGUCAC | -1.65 ± 0.1 | -1.06 ± 0.12
50 | GUAGAGCAAUAUUACGUCCC | -1.01 ± 0.37 | 0.144 ± 0.41
51 | GUAGAGCAAUAUUACGUCCU | -1.1 ± 0.2 | -0.4 ± 0.22
52 | GUAGAGCAAUAUUACGUUAG | -2.43 ± 0.12 | -0.99 ± 0.19

Row | Sequence | self-splicing fitness (ln) (30 °C) | self-splicing fitness (ln) (37 °C)
53 | GUAGAGCAAUAUUACGUUAU | -1.68 ± 0.086 | -0.698 ± 0.091
54 | GUAUAGCAAUAUUACGACAG | -2.58 ± 0.19 | -1.9 ± 0.25
55 | GUAUAGCAAUAUUACGAUUC | 0.127 ± 0.1 | 0.598 ± 0.13
56 | GUAUAGCAAUAUUACGCAGC | -2.32 ± 0.37 | -1.25 ± 0.33
57 | GUAUAGCAAUAUUACGCCCA | -1.33 ± 0.15 | -0.76 ± 0.17
58 | GUAUAGCAAUAUUACGCGGG | -3.7 ± 0.27 | -2.23 ± 0.26
59 | GUAUAGCAAUAUUACGCGGU | – | -2.53 ± 0.44
60 | GUAUAGCAAUAUUACGCUGA | -1.91 ± 0.2 | -1.81 ± 0.17
61 | GUAUAGCAAUAUUACGCUGC | -2.6 ± 0.48 | -0.913 ± 0.3
62 | GUAUAGCAAUAUUACGGAAA | -2.1 ± 0.43 | -2.81 ± 0.32
63 | GUAUAGCAAUAUUACGGACG | -2.73 ± 0.41 | -1.3 ± 0.33
64 | GUAUAGCAAUAUUACGGAGG | -2.94 ± 0.23 | -3.14 ± 0.4
65 | GUAUAGCAAUAUUACGGCAG | -4.25 ± 0.42 | -1.5 ± 0.25
66 | GUAUAGCAAUAUUACGGCCA | -0.388 ± 0.23 | 0.0249 ± 0.18
67 | GUAUAGCAAUAUUACGGGUG | -3.76 ± 0.16 | -2.86 ± 0.22
68 | GUAUAGCAAUAUUACGUAGC | -3.22 ± 0.19 | -1.46 ± 0.14
69 | GUAUAGCAAUAUUACGUCGA | -2.2 ± 0.29 | -1.03 ± 0.2
70 | GUAUAGCAAUAUUACGUCGG | -3.48 ± 0.26 | -1.31 ± 0.22
71 | GUAUAGCAAUAUUACGUCUG | -3.17 ± 0.17 | -1.08 ± 0.14
72 | GUAUAGCAAUAUUACGUUAC | -3.43 ± 0.41 | –
73 | GUAUAGCAAUAUUACGUUCU | -2.27 ± 0.13 | -0.863 ± 0.13
74 | GUCAAGCAAUAUUACGAAUC | -2.16 ± 0.11 | -0.596 ± 0.12
75 | GUCAAGCAAUAUUACGAAUG | -4.11 ± 0.22 | -1.18 ± 0.1
76 | GUCAAGCAAUAUUACGACAA | -3.81 ± 0.4 | -2.58 ± 0.27
77 | GUCAAGCAAUAUUACGACAC | -0.691 ± 0.12 | -0.114 ± 0.14
